Measurements as given in patent US20140017221.

Legend:
Flag-tagged SOD2 = tested on: T1, Flag-tagged SOD2
T1 sequence: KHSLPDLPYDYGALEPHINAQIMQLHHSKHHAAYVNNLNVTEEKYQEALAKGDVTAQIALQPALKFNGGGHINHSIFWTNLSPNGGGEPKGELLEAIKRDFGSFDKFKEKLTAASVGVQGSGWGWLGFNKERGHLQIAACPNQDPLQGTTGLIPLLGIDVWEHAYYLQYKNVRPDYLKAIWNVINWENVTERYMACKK

[1] = tested on: Flag-tagged SOD2 mutant of K122
[2] = tested on: Flag-tagged SOD2 mutant of K68
[3] = tested on: Flag-tagged SOD2 mutant of K130
[4] = target: T2, Long-chain acyl CoA dehydrogenase (endogenous, mouse liver), P51174
T2 chain: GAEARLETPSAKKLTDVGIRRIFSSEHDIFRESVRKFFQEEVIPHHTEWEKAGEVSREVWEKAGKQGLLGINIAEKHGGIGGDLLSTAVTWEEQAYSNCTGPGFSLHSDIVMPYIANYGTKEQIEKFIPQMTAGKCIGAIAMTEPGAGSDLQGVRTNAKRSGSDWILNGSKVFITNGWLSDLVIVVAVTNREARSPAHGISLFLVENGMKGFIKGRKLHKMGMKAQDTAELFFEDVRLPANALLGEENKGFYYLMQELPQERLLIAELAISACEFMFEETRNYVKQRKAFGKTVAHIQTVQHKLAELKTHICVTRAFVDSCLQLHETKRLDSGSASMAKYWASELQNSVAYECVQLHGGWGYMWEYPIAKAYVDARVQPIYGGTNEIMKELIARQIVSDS

SIRT3-H248Y
acetylation levels for SOD2 after immunoprecipitation, western blotting with anti-acetyllysine antibody (Flag-tagged SOD2): SIRT3, but not SIRT3-H248Y, deacetylated SOD2 | enzymatic activity of immunopurified SOD2 (superoxide conversion, colorimetric) (Flag-tagged SOD2): overexpression of SIRT3-H248Y had the opposite effect

SIRT3 (co-transfected expression construct)
acetylation status of immunopurified SOD2 mutant [1]: SIRT3 co-expression reduced acetylation levels of these three SOD2 mutants | acetylation status of immunopurified SOD2 mutant [2]: SIRT3 co-expression reduced acetylation levels of these three SOD2 mutants | acetylation levels of immunopurified SOD2 mutant (Flag-tagged SOD2 K53/89R): SIRT3 co-expression further decreased acetylation levels of K53R and K89R, but not K53/89R | enzymatic activity of immunopurified SOD2 K53/89R (superoxide conversion, colorimetric) (Flag-tagged SOD2 K53/89R): SIRT3 did not further increase its enzymatic activity | acetylation status of immunopurified SOD2 mutant [3]: SIRT3 co-expression reduced acetylation levels of these three SOD2 mutants | acetylation levels of immunopurified SOD2 mutant (Flag-tagged SOD2 K89R): SIRT3 co-expression further decreased acetylation levels of K53R and K89R, but not K53/89R | acetylation levels for SOD2 after immunoprecipitation, western blotting with anti-acetyllysine antibody (Flag-tagged SOD2): SIRT3, but not SIRT3-H248Y, deacetylated SOD2 | enzymatic activity of immunopurified SOD2 (superoxide conversion, colorimetric) (Flag-tagged SOD2): Overexpression of WT SIRT3 decreased the acetylation of SOD2 (FIG. 3D, E, G) and significantly increased its enzymatic activity | acetylation levels of immunopurified SOD2 mutant (Flag-tagged SOD2 K53R): SIRT3 co-expression further decreased acetylation levels of K53R and K89R, but not K53/89R

B1: SIRT3 (endogenous, mouse tissue) (protein)
chain: PISLCVGASGGFGGGGSSEKKFSLQDVAELLRTRACSRVVVMVGAGISTPSGIPDFRSPGSGLYSNLQQYDIPYPEAIFELGFFFHNPKPFFMLAKELYPGHYRPNVTHYFLRLLHDKELLLRLYTQNIDGLERASGIPASKLVEAHGTFVTATCTVCRRSFPGEDIWADVMADRVPRCPVCTGVVKPDIVFFGEQLPARFLLHMADFALADLLLILGTSLEVEPFASLSEAVQKSVPRLLINRDLVGPFVLSPRRKDVVQLGDVVHGVERLVDLLGWTQELLDLMQRERGKLDGQDR
enzymatic activity of LCAD in liver lysates (oxidation of palmitoyl-CoA) [4]: we observed a 50% increase in enzymatic activity of LCAD in WT but not SIRT3 KO mice during CR
